Experimental data as given in patent publication US11214614B2, “LTBP complex-specific inhibitors of TGFβ and uses thereof” (Scholar Rock, Inc., priority 2019, dated 2022).
One block for each molecule: values may come before it.

Legend:
[1] = tested on: TGFβ downstream tonic signaling; assay: TGFβ downstream tonic signaling in non-diseased rat BAL; type: in vivo
Text: Indeed, data presented herein support this notion. […] Preferably, TGFβ antagonists for use in the treatment of such conditions exert their inhibitory activities only towards the disease-induced or disease-associated isoform, while preserving the function of the other isoforms that are normally expressed to mediate tonic signaling in the tissue. […] Alternatively or additionally, agents that target and block integrin-dependent activation of TGFβ may be capable of blocking only a subset of integrins responsible for disease-associated TGFβ1 activation, among numerous integrin types that are expressed by various cell types and play a role in the pathogenesis. Furthermore, even where such antagonists may selectively block integrin-mediated activation of the TGFβ1 isoform, it may be ineffective in blocking TGFβ1 activation triggered by other modes, such as protease-dependent activation. Accordingly, the isoform-specific inhibitors of TGFβ1 such as those described herein are aimed to prevent the activation step of TGFβ1 regardless of the particular mode of activation, while maintaining isoform selectivity.

[2] = in vivo; cited from earlier work
[3] = literature reports (Frazier et al. 2007; Stauber et al. 2014, chronic ≥3 months); cited from earlier work
[4] = Stauber et al. 2014, chronic (≥3 months) administration; cited from earlier work
huLTBP1 proTGFβ1 = huLTBP1 proTGFβ1 (Homo sapiens, UniProt P01137+Q14766); assay: Octet (BLI) binding, IgG captured on AHC tips, antigen at 100 nM; conditions: Table 9, cycle 3, IgG1-agly
huLTBP1 proTGFβ1, sequence (P01137 30-390): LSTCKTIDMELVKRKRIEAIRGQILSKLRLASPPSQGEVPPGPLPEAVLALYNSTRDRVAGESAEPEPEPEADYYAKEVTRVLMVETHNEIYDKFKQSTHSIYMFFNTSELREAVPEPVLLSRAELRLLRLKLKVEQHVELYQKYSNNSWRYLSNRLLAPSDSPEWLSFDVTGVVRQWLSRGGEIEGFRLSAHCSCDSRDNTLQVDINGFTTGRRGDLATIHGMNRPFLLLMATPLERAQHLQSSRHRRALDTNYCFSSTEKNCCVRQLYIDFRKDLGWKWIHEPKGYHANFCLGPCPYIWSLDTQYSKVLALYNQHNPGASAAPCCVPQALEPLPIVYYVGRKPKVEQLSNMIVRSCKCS
huLTBP1 proTGFβ1, sequence (Q14766 347-1721 limits assumed): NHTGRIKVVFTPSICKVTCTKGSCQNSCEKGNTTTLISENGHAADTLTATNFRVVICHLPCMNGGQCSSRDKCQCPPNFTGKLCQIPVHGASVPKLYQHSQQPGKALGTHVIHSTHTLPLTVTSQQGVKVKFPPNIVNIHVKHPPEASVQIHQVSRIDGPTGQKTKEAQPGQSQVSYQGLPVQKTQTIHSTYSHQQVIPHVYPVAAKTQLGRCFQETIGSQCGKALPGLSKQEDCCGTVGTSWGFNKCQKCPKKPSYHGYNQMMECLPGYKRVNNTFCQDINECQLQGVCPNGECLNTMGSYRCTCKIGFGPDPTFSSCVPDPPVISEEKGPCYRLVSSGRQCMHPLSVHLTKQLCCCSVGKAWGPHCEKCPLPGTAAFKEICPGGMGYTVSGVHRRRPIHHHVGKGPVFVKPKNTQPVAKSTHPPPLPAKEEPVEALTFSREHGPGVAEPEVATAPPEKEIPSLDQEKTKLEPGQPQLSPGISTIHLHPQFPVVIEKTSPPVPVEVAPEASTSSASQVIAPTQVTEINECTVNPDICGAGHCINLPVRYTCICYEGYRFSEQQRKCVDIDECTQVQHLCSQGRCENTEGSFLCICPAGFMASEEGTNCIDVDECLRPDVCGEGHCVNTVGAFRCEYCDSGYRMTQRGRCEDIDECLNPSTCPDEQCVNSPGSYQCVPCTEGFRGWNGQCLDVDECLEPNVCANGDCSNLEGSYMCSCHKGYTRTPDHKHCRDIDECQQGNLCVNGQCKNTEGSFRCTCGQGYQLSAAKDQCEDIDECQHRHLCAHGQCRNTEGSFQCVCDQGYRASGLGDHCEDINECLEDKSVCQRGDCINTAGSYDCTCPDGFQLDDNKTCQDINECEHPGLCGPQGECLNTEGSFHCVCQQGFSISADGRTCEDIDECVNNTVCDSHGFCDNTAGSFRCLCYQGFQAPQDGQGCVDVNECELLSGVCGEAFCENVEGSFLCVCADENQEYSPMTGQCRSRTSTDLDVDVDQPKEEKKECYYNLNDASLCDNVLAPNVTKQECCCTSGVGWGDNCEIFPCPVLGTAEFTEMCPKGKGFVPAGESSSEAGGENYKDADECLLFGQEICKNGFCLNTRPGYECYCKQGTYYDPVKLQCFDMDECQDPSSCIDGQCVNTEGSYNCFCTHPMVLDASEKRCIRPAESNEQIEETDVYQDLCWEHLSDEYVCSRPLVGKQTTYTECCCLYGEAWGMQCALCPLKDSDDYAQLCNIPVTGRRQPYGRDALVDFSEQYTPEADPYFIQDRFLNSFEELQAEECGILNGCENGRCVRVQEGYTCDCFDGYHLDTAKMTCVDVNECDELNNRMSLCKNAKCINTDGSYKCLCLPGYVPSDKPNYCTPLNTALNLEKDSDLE
Procedure: (§1) Suitable methods for in vitro binding assays to determine the parameters of binding kinetics include Bio-layer Interferometry (BLI)-based assays such as Octet, and surface plasmon resonance (SPR)-based assays, such as Biacore systems (see, for example: biophysics.bioc.cam.ac.uk/wp-content/uploads/2011/02/Biacore_assay_handbook.pdf).
(§2) The affinity of SR-AB10, SR-AB2 and SR-AB13 was measured by Octet assay. The protocol used to measure the affinity of the antibodies to the complexes provided herein is summarized below.
(§3) • 96 well black polypropylene plates • AHC Octet tips (anti-human IgG Fc capture tips) (FortdBio) • 10× kinetics buffer (FortdBio) (diluted to 1× in PBS) • reiner Bio-One 96-Well Half Area Microplates (VWR cat #82050-044) Procedure:
(§4) Notes: The volume within each well during an Octet experiment is 100 uL.
(§5) A shake speed of 1000 rpm is used for all assay steps.
(§6) Pre-Wet Tips: • Biosensors must be pre-wet in 1× kinetics buffer (lx KB) for at least 10 minutes before starting an experiment. This can be done inside the Octet or on the bench.
(§7) Loading: • Tips are baselined in 1× KB for 1 minute before loading. • AHC tips are loaded with antibody at a concentration of 1 μg/mL (˜7 nM) for 3 minutes. A limit is set so that loading will stop when any one sensor reaches a response of 1 nanometer. • Tips are baselined in buffer for 1 minute after loading. The antibody should not dissociate from the tips during this time.
(§8) Antigen Association: • TGFβ1 in complex with various presentation molecules was associated to the immobilized antibodies at a single concentration of 100 nM in 1× KB.
(§9) Antibody Dissociation: • Dissociation in 1×KB was performed for 3 minutes.
(§10) Data Analysis using ForteBio Data analysis software 8.2: • Processing: align Y axis to last 5 seconds of baseline, perform inter-step correction with align to dissociation, and perform Savitzky-Golay filtering. • Analysis: 1:1 fitting model is utilized. Fitting is local and full. […] Results:
(§11) LTBP complex-specific antibodies from the first round of affinity maturation/optimization (SR-AB14, SR-AB16, SR-AB17, SR-AB18, SR-AB19) were selected for a second round of affinity maturation/optimization (i.e., CDR-H3 mutagenesis as described herein) and particular progeny antibodies (SR-AB20, SR-AB21, SR-AB22, SR-AB23, SR-AB24, SR-AB25, SR-AB26, SR-AB27, SR-AB28, and SR-AB29) were assessed for their ability to bind various proTGFβl constructs. Binding affinities of the optimized antibodies were measured by Octet against human LTBP1-proTGFβI, human LTBP3-proTGFb1, mouse LTBP1-proTGFβ1, mouse LTBP3-proTGFb1, and GARP-proTGFβl complexes, essentially as described in Example 6. In brief, test antibodies were immobilized to the surface of anti-human Fc capture biosensors (AHC) (ForteBio®) and binding was then tested against the various TGFβ1 complexes at a single concentration of 100 nM to assess binding affinities. The antigens were allowed to associate for 3 minutes followed by a 5-minute dissociation. Kinetics buffer (ForteBio®) was used throughout the experiment, and KD was determined using a 1:1 fitting model for each antibody antigen pair.
Binding affinities of the optimized antibodies were measured by Octet against human LTBP1-proTGFβ1, human LTBP3-proTGFβ1, mouse LTBP1-proTGFβ1, mouse LTBP3-proTGFβ1, and GARP-proTGFβ1 complexes, essentially as described in Example 6. In brief, test antibodies were immobilized to the surface of anti-human Fc capture biosensors (AHC) (ForteBio®) and binding was then tested against the various TGFβ1 complexes at a single concentration of 100 nM to assess binding affinities. The antigens were allowed to associate for 3 minutes followed by a 5-minute dissociation. Kinetics buffer (ForteBio®) was used throughout the experiment, and KD was determined using a 1:1 fitting model for each antibody antigen pair. […]

huLTBP3 proTGFβ1 = huLTBP3 proTGFβ1 (Homo sapiens, UniProt P01137+Q9NS15); assay: as above; conditions: Table 9, cycle 3, IgG1-agly
huLTBP3 proTGFβ1, sequence (P01137 30-390): as the sequence (P01137 30-390) above
huLTBP3 proTGFβ1, sequence (Q9NS15 44-1303): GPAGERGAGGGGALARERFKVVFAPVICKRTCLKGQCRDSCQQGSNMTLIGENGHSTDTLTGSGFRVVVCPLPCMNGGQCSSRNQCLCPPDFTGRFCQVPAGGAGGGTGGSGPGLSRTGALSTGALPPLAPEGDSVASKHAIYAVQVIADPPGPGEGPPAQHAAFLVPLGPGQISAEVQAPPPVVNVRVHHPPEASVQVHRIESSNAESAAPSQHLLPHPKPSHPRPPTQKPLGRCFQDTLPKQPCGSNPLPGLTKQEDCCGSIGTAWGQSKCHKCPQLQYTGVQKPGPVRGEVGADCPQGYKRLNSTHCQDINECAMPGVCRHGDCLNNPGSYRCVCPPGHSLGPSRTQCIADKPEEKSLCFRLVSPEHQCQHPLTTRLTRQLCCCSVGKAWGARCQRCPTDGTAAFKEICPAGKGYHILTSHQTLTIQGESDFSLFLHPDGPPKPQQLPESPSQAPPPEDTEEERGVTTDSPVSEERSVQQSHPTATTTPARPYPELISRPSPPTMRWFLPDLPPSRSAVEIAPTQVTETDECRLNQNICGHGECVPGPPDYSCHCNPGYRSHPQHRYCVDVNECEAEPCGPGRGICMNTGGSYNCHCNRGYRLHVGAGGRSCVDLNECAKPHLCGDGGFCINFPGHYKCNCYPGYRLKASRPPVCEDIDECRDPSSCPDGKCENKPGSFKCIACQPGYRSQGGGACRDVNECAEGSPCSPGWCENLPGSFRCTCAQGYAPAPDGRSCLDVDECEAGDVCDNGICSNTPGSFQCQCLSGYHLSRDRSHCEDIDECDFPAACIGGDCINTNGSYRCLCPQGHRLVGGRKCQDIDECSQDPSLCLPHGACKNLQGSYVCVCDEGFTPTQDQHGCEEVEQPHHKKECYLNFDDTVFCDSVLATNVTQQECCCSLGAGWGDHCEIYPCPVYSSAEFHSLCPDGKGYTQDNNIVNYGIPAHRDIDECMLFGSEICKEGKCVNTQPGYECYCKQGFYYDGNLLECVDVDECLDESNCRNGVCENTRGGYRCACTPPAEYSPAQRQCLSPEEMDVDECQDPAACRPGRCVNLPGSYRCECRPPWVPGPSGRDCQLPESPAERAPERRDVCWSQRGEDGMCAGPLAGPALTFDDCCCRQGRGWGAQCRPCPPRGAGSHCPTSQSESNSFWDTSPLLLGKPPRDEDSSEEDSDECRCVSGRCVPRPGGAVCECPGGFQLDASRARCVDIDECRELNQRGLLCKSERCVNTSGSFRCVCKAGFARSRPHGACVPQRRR
Procedure: as §1, §2, §3, §4, §5, §6, §7, §8, §9, §10, §11
Binding affinities of the optimized antibodies were measured by Octet against human LTBP1-proTGFβ1, human LTBP3-proTGFβ1, mouse LTBP1-proTGFβ1, mouse LTBP3-proTGFβ1, and GARP-proTGFβ1 complexes, essentially as described in Example 6. In brief, test antibodies were immobilized to the surface of anti-human Fc capture biosensors (AHC) (ForteBio®) and binding was then tested against the various TGFβ1 complexes at a single concentration of 100 nM to assess binding affinities. The antigens were allowed to associate for 3 minutes followed by a 5-minute dissociation. Kinetics buffer (ForteBio®) was used throughout the experiment, and KD was determined using a 1:1 fitting model for each antibody antigen pair.

[5] = tested on: male C57BL/6J mice on CDHFD (liver fibrosis); assay: Choline-deficient high fat diet (CDHFD) model of mouse NASH, liver hydroxyproline content; type: in vivo; conditions: 15 mg/kg twice a week i.p., weeks 4 through 12 of CDHFD
Text: The Choline deficient high fat diet (CDHFD) is an established diet-induced model of Non-Alcoholic steatohepatitis (NASH). In this model, male C57BL/6J mice are fed a choline deficient, 0.10% Methionine, high fat diet for 12 weeks. Three to six weeks after the start of the CDHFD, activation of pro-fibrotic processes can be detected through increased expression of α-smooth muscle actin (α-SMA) protein, a marker for activation of hepatic stellate cells, and elevated tissue hydroxyproline content reflecting increased collagen synthesis and deposition (Matsumoto et. al, Int J Exp Pathol. 2013 April; 94(2):93-103).
LTBP complex-specific antibodies were tested for their ability to inhibit and/or reduce the extent of liver fibrosis in mice in the CDHFD model as follows. An outline of the study is shown below in Table 21.
Animals in the test cohorts were on the CDHFD for the duration of the study. A separate cohort of mice (Group 1) were administered a regular chow diet as a study control. Antibodies SR-AB42 and SR-AB31 were administered to mice by intraperitoneal (i.p.) injection beginning at 4 weeks post start of the CDHFD. Animals were dosed at antibody test concentrations 15 mg/kg twice a week (i.e., 30 mg/kg/week) for a test duration of 8 weeks (i.e., weeks 4 through 12). […] Endpoint readout was hydroxyproline content. […]

Molecule: c1ccc(-c2nn3c(c2-c2ccnc4cc(OCCN5CCOCC5)ccc24)CCC3)nc1 [LY2109761]
TGFβ downstream tonic signaling [1]: inhibit TGFβ downstream tonic signaling in non-diseased rat BAL

Molecule: GC1008: a “pan” TGFβ antibody capable of neutralizing all human isoforms of TGFβ
Exposure, DN Cmax, Human [2]: DN Cmax ~(350 ng/mL) (ng/mL) mg
Exposure, Half-life, Human [2]: Half-life: 21.7 d

Molecule: Cc1cccc(-c2nn3c(c2-c2ccnc4ccc(C(N)=O)cc24)CCC3)n1 [LY2157299]
Toxicity in rats [3]: caused multiple organ toxicities involving the cardiovascular, gastrointestinal, immune, bone/cartilage, reproductive, and renal systems
Toxicity in dogs [4]: caused multiple organ toxicities involving the cardiovascular, gastrointestinal, immune, bone/cartilage, reproductive, and renal systems

Hu LTBP1-proTGFβ1 Kon (huLTBP1 proTGFβ1; 1:1 fit): 240000 M⁻¹ s⁻¹
Hu LTBP1-proTGFβ1 Koff (huLTBP1 proTGFβ1; 5-minute dissociation): 9.89e-05 s⁻¹
Hu LTBP3-proTGFβ1 Kon (huLTBP3 proTGFβ1; 1:1 fit): 308000 M⁻¹ s⁻¹
Hu LTBP3-proTGFβ1 Koff (huLTBP3 proTGFβ1; 5-minute dissociation): 6.81e-05 s⁻¹
B1: SR-AB31: cycle 3 light chain-optimized antibody, lineage SR-AB22; CDRs SEQ ID NO: 124-129 (antibody, V domains shown)
VH: QVQLVESGGGVVQPGRSLRLSCAASGFTFRSYVMHWVRQAPGKGLEWVAVISHEGSLKYYADSVKGRFTISRDNSKNTLYLQMNSLRAEDTAVYYCAVPRIAARRGGFGYWGQGTLVTVSS
VL: NFMLTQPHSVSESPGKTVTISCTRSSGNIDNNYVQWYQQRPGSSPTTVIYEDNQRPSGVPDRFSGSIDSSSNSASLTISGLKTEDEADYYCQSYDFNNQGVVFGGGTKLTVL
Hydroxyproline (HYP) in liver tissue [5]: inhibited the increase in HYP
